According to US20230399395A1:

Columns and labels:
IL5 (human) [1] = target: IL5 (human) (UniProt P05113); test: ELISA
IL5 (human) [2] = target: IL5 (human) (UniProt P05113); test: flow cytometry blocking IL5/IL5R
IL5 (human) [3] = target: IL5 (human) (UniProt P05113); test: flow cytometry blocking IL5/IL5R; remark: listed apart in the source
IL5 (human) [4] = target: IL5 (human) (UniProt P05113); test: cell-based or functional assay
IL5 (human) [5] = target: IL5 (human) (UniProt P05113); test: Flow cytometry, blocking of IL5-biotin binding to HEK293F cells expressing IL5R

Row | IC50 of inhibition of the proliferation of TF-1 cells induced by IL5 (CCK8, OD450) (IL5 (human) [4]) [nM] | IC50 (IL5 (human) [5]) [µg/mL] | Substance | EC50 (IL5 (human) [1]) [µg/mL] | IC50 (IL5 (human) [2]) [µg/mL] | IC50 (IL5 (human) [3]) [µg/mL]
1 |  |  | Control Ab Nucala | 0.0563 | 2.96 | 2.36
2 | 0.178 | 2.04 | Nucala (antibody) |  |  | 
